T1: CFP-PPARγ2 (peroxisome proliferator activated receptor γ2 fused to ECFP) (UniProt P37231-1 1-505)
T1 sequence (looked up): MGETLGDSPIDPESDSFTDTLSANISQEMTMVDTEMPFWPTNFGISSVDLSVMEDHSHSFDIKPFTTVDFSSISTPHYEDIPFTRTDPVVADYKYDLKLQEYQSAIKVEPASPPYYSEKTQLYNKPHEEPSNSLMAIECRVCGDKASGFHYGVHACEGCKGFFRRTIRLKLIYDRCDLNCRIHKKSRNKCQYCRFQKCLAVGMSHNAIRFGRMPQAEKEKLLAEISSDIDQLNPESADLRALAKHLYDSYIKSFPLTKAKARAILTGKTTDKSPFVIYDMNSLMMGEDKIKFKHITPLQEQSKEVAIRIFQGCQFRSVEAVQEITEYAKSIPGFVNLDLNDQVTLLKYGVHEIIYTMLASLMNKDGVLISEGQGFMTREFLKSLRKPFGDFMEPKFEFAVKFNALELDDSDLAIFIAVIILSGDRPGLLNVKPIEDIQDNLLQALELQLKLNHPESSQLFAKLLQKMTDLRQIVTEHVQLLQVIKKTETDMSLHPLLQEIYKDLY

B1: EYFP-SRC-2 (steroid receptor coactivator 2 fused to EYFP) (natural protein)
chain: not shown
B2: EYFP-SRC-3 (steroid receptor coactivator 3 fused to EYFP) (natural protein)
chain: not shown

Molecular target: T1, CFP-PPARγ2 (peroxisome proliferator …)
Assay: FRET or BRET

| Binder | fold change in FRET, MIX against vehicle [fold] |
| --- | --- |
| B1 | > 1.5 |
| B2 | > 1.5 |
